T1: recombinant soluble human IL-6 receptor (SR344) (human, UniProt P08887 20-344, biotinylated (sites not given) where immobilized via streptavidin or used in phage ELISA)
T1 construct: also called soluble IL-6 receptor; membrane-type IL-6 receptor (when biotinylated and immobilized on the chip)
T1 sequence (looked up): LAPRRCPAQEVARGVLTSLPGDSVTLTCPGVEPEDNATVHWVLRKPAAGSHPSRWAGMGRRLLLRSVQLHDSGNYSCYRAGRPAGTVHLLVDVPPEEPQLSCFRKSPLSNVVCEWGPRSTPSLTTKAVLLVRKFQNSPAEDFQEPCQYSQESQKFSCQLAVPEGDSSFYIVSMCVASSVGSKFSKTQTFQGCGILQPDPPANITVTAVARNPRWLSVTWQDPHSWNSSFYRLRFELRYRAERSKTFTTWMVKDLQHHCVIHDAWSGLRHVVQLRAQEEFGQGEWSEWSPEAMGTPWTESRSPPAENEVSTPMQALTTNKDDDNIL


Columns and labels:
[1] = biological target: T1, recombinant soluble human IL-6 receptor …; experiment: SPR Biacore T100, biotinylated SR344 on streptavidin chip (model of membrane-type IL-6 receptor), antibody as analyte, bound at pH 7.4, dissociation at pH 5.8, 37 C
Description: (§1) Binding to the membrane-type IL-6 receptor was evaluated by evaluating binding to the IL-6 receptor immobilized on a sensor chip. SR344 was biotinylated in accordance with a method known among persons with ordinary skill in the art, and the biotinylated SR344 was immobilized on the sensor chip via streptavidin using the affinity between streptavidin and biotin. All the measurements were carried out at 37° C. The mobile phase buffer was 10 mM MES (pH 5.8), 150 mM NaCl and 0.05% TWEEN® 20 (polyoxyethelene sorbitan monolaurate).
(§2) The pH-dependently-binding clones were injected under the condition of pH 7.4 to allow them to bind to SR344, and then, the pH-dependent dissociation of each clone at the pH of the mobile phase, pH 5.8, was observed. The results are shown in FIG. 21 (results for Fv1-M71, Fv1-M73, Fv3-M71, and Fv3-M73 are shown in FIG. 21, while results for other clones are shown in FIGS. 17 and 19). Analyses were carried out in the same manner as in Example 10 and the pH dependencies of the dissociation rate constants of all of the eleven types of clones are shown in Table 12.

[2] = biological target: T1, recombinant soluble human IL-6 receptor …; experiment: SPR Biacore T100, biotinylated SR344 on streptavidin chip (model of membrane-type IL-6 receptor), antibody as analyte, 37 C
Description: as §1, §2

[3] = biological target: T1, recombinant soluble human IL-6 receptor …; experiment: SPR Biacore T100, antibody captured by anti-IgG gamma chain F(ab)2, SR344 analyte, pH 7.4, 37 C
Description: Kinetic analyses of antigen-antibody reactions at pH 7.4 were carried out on the four types of antibodies, i.e., the humanized PM1 antibody (wild type: WT), and […], H3pI/L73-IgG1, Fv2-IgG1, and Fv4-IgG1 constructed in Examples 2 and 10, by using a Biacore T100™ surface plasmon resonance system (GE Healthcare) (buffer: 10 mM MES (pH 7.4), 150 mM NaCl, 0.05% TWEEN® 20 (polyoxyethelene sorbitan monolaurate)). Each antibody was bound on a sensor chip on which an anti-IgG γ chain specific F(ab)₂ (Pierce) was immobilized by amine coupling, and then, SR344 adjusted to a concentration of 9.8 to 40 nM was injected thereto as an analyte. The association to and dissociation from SR344 were observed on a real-time basis for the pH-dependent-binding clones. All the measurements were carried out at 37° C. Association rate constants kₐ (1/Ms) and dissociation rate constants kd (1/s) were calculated using Biacore T100™ Evaluation Software (GE Healthcare), and dissociation constants KD (M) were calculated on the basis of those values (Table 7).
The association to and dissociation from SR344 were observed on a real-time basis using the same method as Example 10 for the eleven types of antibodies, humanized PM1 antibody (wild type: WT) and H3pI/L73-IgG1, Fv1-M71, Fv1-M73, Fv2-IgG1, Fv3-M71, Fv3-M73, Fv4-IgG1, Fv4-IgG2, Fv4-M58, and Fv4-M73, constructed as described above. The association rate constants kₐ (1/Ms) and dissociation rate constants kd. (1/s) were calculated by analysis in the same manner, and the dissociation constants KD (M) were calculated on the basis of those values (Table 11).

[4] = biological target: T1, recombinant soluble human IL-6 receptor …; experiment: SPR Biacore T100, biotinylated SR344 on streptavidin chip (model of membrane-type IL-6 receptor), antibody as analyte, bound at pH 7.4, dissociation at pH 7.4, 37 C
Description: as §1, §2

| Binder | koff [1] [s⁻¹] | kd (pH 5.8)/kd (pH 7.4) [2] | Kd [3] [nM] | koff [3] [s⁻¹] | kon [3] [M⁻¹ s⁻¹] | koff [4] [s⁻¹] |
| --- | --- | --- | --- | --- | --- | --- |
| Fv3-M73 (antibody) heavy: QVQLQESGPGLVKPSETLSLTCAVSGHSISHDHAWSWVRQPPGEGLEWIGFISYSGITNYNPTLQGRVTISRDNSKNTLYLQMNSLRAEDTAVYYCARSLARTTAMDYWGEGTLVTVSSASTKGPSVFPLAPSSKSTSGGTAALGCLVKDYFPEPVTVSWNSGALTSGVHTFPAVLQSSGLYSLSSVVTVPSSNFGTQTYTCNVDHKPSNTKVDKTVERKSCVECPPCPAPPVAGPSVFLFPPKPKDTLMISRTPEVTCVVVDVSQEDPEVQFNWYVDGVEVHNAKTKPREEQFNSTFRVVSVLTVVHQDWLNGKEYKCKVSNKGLPAPIEKTISKTKGQPREPQVYTLPPSQEEMTKNQVSLTCLVKGFYPSDIAVEWESNGQPENNYKTTPPMLDSDGSFFLYSKLTVDKSRWQEGNVFSCSVMHEALHAHYTQKSLSLSP light: DIQMTQSPSSLSASVGDSVTITCQASRDISSHLNWYQQKPGKAPELLIYYGSHLLSGVPSRFSGSGSGTDFTFTISSLEAEDAATYYCGQGNRLPYTFGQGTKVEIERTVAAPSVFIFPPSDEQLKSGTASVVCLLNNFYPREAKVQWKVDNALQSGNSQESVTEQDSKDSTYSLSSTLTLSKADYEKHKVYACEVTHQGLSSPVTKSFNRGEC | 0.0053 | 10.9 | 1 | 0.00087 | 850000 | 0.00049 |
| Fv1-M71 (antibody, human IgG2, kappa) heavy: QVQLQESGPGLVKPSETLSLTCAVSGYSISHDHAWSWVRQPPGEGLEWIGHISYSGITNYNPHLQDRVTISRDTSKNQFSLKLSSVTAADTAVYYCARFLARITAHDHWGEGTLVTVSSASTKGPSVFPLAPCSRSTSESTAALGCLVKDYFPEPVTVSWNSGALTSGVHTFPAVLQSSGLYSLSSVVTVPSSNFGTQTYTCNVDHKPSNTKVDKTVERKCCVECPPCPAPPVAGPSVFLFPPKPKDTLMISRTPEVTCVVVDVSHEDPEVQFNWYVDGVEVHNAKTKPREEQFNSTFRVVSVLTVVHQDWLNGKEYKCKVSNKGLPAPIEKTISKTKGQPREPQVYTLPPSREEMTKNQVSLTCLVKGFYPSDIAVEWESNGQPENNYKTTPPMLDSDGSFFLYSKLTVDKSRWQQGNVFSCSVMHEALHAHYTQKSLSLSPGK light: DIQMTQSPSSLSASVGDSVTITCQASRDISSHLNWYQQKPGKAPELLIYYGSHLESGVPSRFSGSGSGTDFTFTISSLEAEDAATYYCGQGNRLPYTFGQGTKVEIERTVAAPSVFIFPPSDEQLKSGTASVVCLLNNFYPREAKVQWKVDNALQSGNSQESVTEQDSKDSTYSLSSTLTLSKADYEKHKVYACEVTHQGLSSPVTKSFNRGEC | 0.0069 | 11.3 | 0.97 | 0.00054 | 550000 | 0.00061 |
| Fv1-M73 (antibody) heavy: QVQLQESGPGLVKPSETLSLTCAVSGYSISHDHAWSWVRQPPGEGLEWIGHISYSGITNYNPHLQDRVTISRDTSKNQFSLKLSSVTAADTAVYYCARFLARITAHDHWGEGTLVTVSSASTKGPSVFPLAPSSKSTSGGTAALGCLVKDYFPEPVTVSWNSGALTSGVHTFPAVLQSSGLYSLSSVVTVPSSNFGTQTYTCNVDHKPSNTKVDKTVERKSCVECPPCPAPPVAGPSVFLFPPKPKDTLMISRTPEVTCVVVDVSQEDPEVQFNWYVDGVEVHNAKTKPREEQFNSTFRVVSVLTVVHQDWLNGKEYKCKVSNKGLPAPIEKTISKTKGQPREPQVYTLPPSQEEMTKNQVSLTCLVKGFYPSDIAVEWESNGQPENNYKTTPPMLDSDGSFFLYSKLTVDKSRWQEGNVFSCSVMHEALHAHYTQKSLSLSP light: DIQMTQSPSSLSASVGDSVTITCQASRDISSHLNWYQQKPGKAPELLIYYGSHLESGVPSRFSGSGSGTDFTFTISSLEAEDAATYYCGQGNRLPYTFGQGTKVEIERTVAAPSVFIFPPSDEQLKSGTASVVCLLNNFYPREAKVQWKVDNALQSGNSQESVTEQDSKDSTYSLSSTLTLSKADYEKHKVYACEVTHQGLSSPVTKSFNRGEC | 0.0032 | 8.8 | 0.91 | 0.00055 | 610000 | 0.00037 |

— patent US20180282719A1 (published 2018)
